Measured values published in the DeepSol protein solubility set.

Test: soluble on expression in E. coli; label from the status in PepcDB or PDB records

Sequence	soluble on expression in E. coli
MTVLEAVLEIQAITGSRLLSMVPGPARPPGSCWDPTQCTRTWLLSHTPRRRWISGLPRASCRLGEEPPPLPYCDQAYGEELSIRHRETWAWLSRTDTAWPGAPGVKQARILGELLLV	not soluble
MSLSLRDEALEMHKRNQGKLEVKPNVKVTNKEELSLAYSPGVAEPCKDIYEDKRKVYDYTIKGNTVAVITDGTAVLGLGNIGPEASIPVMEGKAVLFKSFAGINGVPIALNTTDTEEIIKTVKLLEPNYGGINLEDISAPRCFEIEERLKKETNIPVFHDDQHGTAIVTMAGLVNALRVVNKDIAKIKVVLNGAGAAGIAIVKLLYAYGVRNMVMCDSRGAIFEGRSYGMNPTKDVVAKWTNKDKIEGSLEEVVKDADVFIGVSVANALSQDMVKSMADNPIIFAMANPNPEIIPDDAKAAGARVVGTGRSDYPNQINNVLAFPGIFRGALEVEATHINEEMKKAAVEAIADLIDSSELNEDYCIPGPFDKRVAPSVARNVAKAAMESGVARIEVDPQDVYDKTMKLTDLQEGHHHHHH	soluble
MEKQWWKESVVYQIYPRSFMDSNGDGIGDLRGIISKLDYLKELGIDVIWLSPVYESPNDDNGYDISDYCKIMNEFGTMEDWDELLHEMHERNMKLMMDLVVNHTSDEHNWFIESRKSKDNKYRDYYIWRPGKEGKEPNNWGAAFSGSAWQYDEMTDEYYLHLFSKKQPDLNWDNEKVRQDVYEMMKFWLEKGIDGFRMDVINFISKEEGLPTVETEEEGYVSGHKHFMNGPNIHKYLHEMNEEVLSHYDIMTVGEMPGVTTEEAKLYTGEERKELQMVFQFEHMDLDSGEGGKWDVKPCSLLTLKENLTKWQKALEHTGWNSLYWNNHDQPRVVSRFGNDGMYRIESAKMLATVLHMMKGTPYIYQGEEIGMTNVRFESIDEYRDIETLNMYKEKVMERGEDIEKVMQSIYIKGRDNARTPMQWDDQNHAGFTTGEPWITVNPNYKEINVKQAIQNKDSIFYYYKKLIELRKNNEIVVYGSYDLILENNPSIFAYVRTYGVEKLLVIANFTAEECIFELPEDISYSEVELLIHNYDVENGPIENITLRPYEAMVFKLK	soluble
MSLLRALPEVAEPEGVDFIEIATGRLGETIRVLHQLGFRLGGHHCSKQDYQVWTQGDVRIVVCDRGVTGAPTTISAMGFDTPDPEAAHARAELLRAQTIDRPHIEGEVDLKGVYAPDGVELFFAGPSPDGMPEWLPEFGVEKQEAGLIEAIDHVNFAQPWQHFDEAVLFYTALMALETVREDEFPSPIGLVRNQVMRSPNDAVRLLLSVAPEDGEQGDFLNAAYPEHIALATADIVAVAERARKRGLDFLPVPENYYDDVQARFDLPQEFLDTLKENHLLYDRDENGEFLHFYTRTLGTLFFEVVERRGGFAGWGETNAPVRLAAQYREVRDLERGIPEGHHHHHH	soluble
MAKEKTVYVCSNCGQESPKWVGKCPSCGEWNTYVEEIVRKETTNRRPVSGIETQKAKPVILSEIEADDEPRINMHDDELNRVLGGGLVPGSLVLIGGEPGIGKSTLVMQTVLRMPDKKILYVSGEESARQLKLRADRLSEVSSDCLIVCETSLEQIYVHIKNTSPDLVIIDSIQTISTENIESSPGSIAQVRECSASILRFAKETHTPVLLIGHINKEGSIAGPKVLEHIVDTVLQFEGDQHYMYRILRSIKNRFGSTAELGIYEMRQDGLRQVSNPSELLLSQDHEGMSGVAIASAIEGVRPFLIETQALVSSAVYGNPQRSATGFDIRRMNMLLAVLEKRVGFKLAQKDVFLNIAGGLKVNDPAIDLAVISAILSSNMDAAVEPEVCMAGEIGLSGEIRPVNRIEQRIGEAEKLGFKRFLLPKYNLQGIDTQKLKIELVPVRKVEEAFRALFG	not soluble
MSLTKHVAVLLAHGFEEAEAVIFIDIMRRLDIRVDILSCEATTALSTYFETPISADALLSDRLDHHYDAVMMPGGPKGTDSLTANPQVIAFLRRHIAQDKYICALCSSGAKVLAAHHLLAGRTYSTGDKLADKFADGVYLDQDVVVDGKFITAKGLGVSFEFAFTVARHLLSDNLPKVEHQASHIYFKHGSAEGHHHHHH	soluble
MENFQPHKQCGYGVIMRLTSKGRYAVTAMLDVALHSQQNPVPLADISERQGISLSYLEQLFSKLRKAGLVASVRGPGGGYRLGMDSYAISIGTVIAAVDESVDATKCNGKGDCQGGTRCLTHTLWRDLSSRITDFLNNITLGELMMDNEVLEVSDRQDLHLAVSQRVSQNNSNTVTIGAAPFGINVRS	not soluble
MAKVLVLNASYEPLNITSWQRAVVLLIKGKAEQVEHNGKMVYNNFPLPTVIRLRHYVVTPYKEIPLTRRNILHRDGHSCQYCGYTGDELTLDHVIPKSRGGGETWENIVTACVRCNVKKGNRTPKEANMPLRQTPRRPISSLYFEVTKHVRTGTHQEWRKYVIGALEHHHHHH	not soluble
SKSGAQTPKSPPEHYVQETPLMFSRCTSVSSLDSFESRSIASSVQSEPCSGMVSGIISPSDLPDSPGQTMPPSRSKTPPPPPQTAQTKREVPKNKAPTAEKRESGPKQAAVNAAVQRVQVLPDADTLLHFATESTPDGFSCSSSLSALSLDEPFIQKDVELRIMPPVQENDNGNETESE	soluble
MSSKEQKTPEGQAPEEIIMDQHEEIEAVEPEASAEQVDPRDEKVANLEAQLAEAQTRERDGILRVKAEMENLRRRTELDIEKAHKFALEKFINELLPVIDSLDRALEVADKANPDMSAMVEDIELTLKSMLDVVRKFGVEVIAETNVPLDPNVHQAIAMVESDDVAPGNVLGIMQKGYTLNGRTIRAAMVTVAKAKA	soluble
MLVDKTEFEAWMERIMGELYRISRKLDKAETREKHLNYLNGERLYDNQEVCLLLRISKRTLQRYRNNGVLKFYSIYHKTYYKESDLHEFIRNNFDENEIKRQAREDKLSESYPLPKE	not soluble
MDYLSFIAVAAHEFVHTWNVKQYRPKGIVPYDYQQENYSNLLWLVEGSTSYLQYQLLLRGNLMTTDEFFTALAKRITAHAHKPGKESQSVAQASFDAWISEGGDYGNNHSVNILEHHHHHH	soluble
MAGVKAYELRTKSKEQLASQLVDLKKELAELKVQKLSRPSLPKIKTVRKSIACVLTVINEQQREAVRQLYKGKKYQPKDLRAKKTRALRRALTKFEASQVTEKQRKKQIAFPQRKYAIKA	soluble
MFVFDATPLIYLAKAERLSLLSRLDASRLIPQRVYEEVVTVGLDAGYPDARRIEQSVEEGTFDVVSVPETTLFDRLSGNPNVSDADVAVLALAADHGATAVMDDAYGRDIAAVEAIETRGTAYLVLSLVRDGELEADDARETLEAMLDAGWHCSPSLYSKLLSKLEELAVGGADNRLEHHHHHH	not soluble
MGSDKIHHHHHHMNTKNYFIIGGTGGIGKAMVEQLLQTATNEHASTGMNNDTGIRVFATYHKSIPDFEADNLYWIAMDICDEQSIKHAVDTIKQQTTHIDWVINCAGLLHTKAQQPEKALQQLESEFFLQNMQVNALASLLIAKHIKPLLAKAERSADKPAIFATISARVGSISDNQLGGWYSYRMSKAALNMGMKNLSIEWSRSLKDVCVVVMQPGTVNTQLSAPFQGNVADGQLFSPTYSAECLLEVLSKMSAAQSGSFVDWAGESIPW	not soluble
MEMVKSRSKVAIIGAGFVGASAAFTMALRQTANELVLIDVFKEKAIGEAMDINHGLPFMGQMSLYAGDYSDVKDCDVIVVTAGANRKPGETRLDLAKKNVMIAKEVTQNIMKYYNHGVILVVSNPVDIITYMIQKWSGLPVGKVIGSGTVLDSIRFRYLLSEKLGVDVKNVHGYIIGEHGDSQLPLWSCTHIAGKNINEYIDDPKCNFTEEDKKKIAEDVKTAGATIIKNKGATYYGIAVSINTIVETLLKNQNTIRTVGTVINGMYGIEDVAISLPSIVNSEGVQEVLQFNLTPEEEEALRFSAEQVKKVLNEVKNL	soluble
MGSDKIHHHHHHKTRTVFVCQQCGAQQSRWMGKCPECGAWDSLVEQIVTPARGTGGQRAATVGQNQPIRLRDVPLTDFQRLPVYAEEFARVLGGGLVPGSVVLIGGDPGVGKSTLLGQVAAHFAASVGPALYVSAEESAQQIRLRAERLGLTADDLFLLAETSLDLIIEHIRHLRPRLVIVDSIQTVYLPELTSAAGSVSQVREGALRLMQLAKETAIPIVLVGHVTKEGAIAGPRVLEHIVDVVLYLEGDRFHQFRLLRGGKNRFGSTNEVGVFEMTGDGLREVRNPSQVFLAERNTQSPGSTVTVTLEGTRPLLVEVQALTSHTGNAQPRRTTNGFDLNRLLMLTAVLSKRVGLPLFNQDLYVNIVGGLRIGEPAADLAVALAIASSYRNQRIASRSGLPW	not soluble
